Biological target: T1, human Colony Stimulating Factor-1 (hCSF-1), residues 1-149 (human)
T1 sequence (P09603 whole entry, looked up): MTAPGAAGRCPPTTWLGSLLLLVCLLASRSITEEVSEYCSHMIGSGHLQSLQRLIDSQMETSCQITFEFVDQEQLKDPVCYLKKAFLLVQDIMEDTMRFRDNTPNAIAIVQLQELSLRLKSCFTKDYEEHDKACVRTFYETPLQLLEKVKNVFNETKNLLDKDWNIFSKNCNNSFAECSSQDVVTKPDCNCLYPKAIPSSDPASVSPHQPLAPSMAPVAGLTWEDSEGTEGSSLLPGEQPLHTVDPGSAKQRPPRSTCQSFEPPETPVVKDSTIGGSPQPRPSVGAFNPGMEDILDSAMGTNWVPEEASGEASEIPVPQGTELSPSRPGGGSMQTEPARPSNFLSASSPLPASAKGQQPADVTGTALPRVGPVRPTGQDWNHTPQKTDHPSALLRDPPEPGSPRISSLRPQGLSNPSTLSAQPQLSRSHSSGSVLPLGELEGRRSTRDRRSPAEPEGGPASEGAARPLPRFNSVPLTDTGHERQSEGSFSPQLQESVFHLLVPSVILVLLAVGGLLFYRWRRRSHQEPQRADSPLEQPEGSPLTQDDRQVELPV
Assay: ITC

Kd: 213 nM
B1: human CSF-1 receptor, first three extracellular domains (hCSF-1R_(D1-D3)) (domain or fragment)
chain: IPVIEPSVPELVVKPGATVTLRCVGNGSVEWDGPPSPHWTLYSDGSSSILSTNNATFQNTGTYRCTEPGDPLGGSAAIHLYVKDPARPWNVLAQEVVVFEDQDALLPCLLTDPVLEAGVSLVRVRGRPLMRHTNYSFSPWHGFTIHRAKFIQSQDYQCSALMGGRKVMSISIRLKVQKVIPGPPALTLVPAELVRIRGEAAQIVCSASSVDVNFDVFLQHNNTKLAIPQQSDFHNNRYQKVLTLNLDQVDFQHAGNYSCVASNVQGKHSTSMFFRVVES
modifications: N-linked glycosylation (produced with kifunensine)

Source: publication PMC3260422 (Structure(London, England:1993), 2011)
